Source: US20210221907A1 (published 2021)

Tests used:
[1] = molecular target: T1, recombinant TROP2 protein (UniProt P09758 27-274, limits assumed); assay: ELISA titration, antibody with varying concentrations of recombinant TROP2 protein
T1 construct: also called rProtein
T1 sequence (looked up): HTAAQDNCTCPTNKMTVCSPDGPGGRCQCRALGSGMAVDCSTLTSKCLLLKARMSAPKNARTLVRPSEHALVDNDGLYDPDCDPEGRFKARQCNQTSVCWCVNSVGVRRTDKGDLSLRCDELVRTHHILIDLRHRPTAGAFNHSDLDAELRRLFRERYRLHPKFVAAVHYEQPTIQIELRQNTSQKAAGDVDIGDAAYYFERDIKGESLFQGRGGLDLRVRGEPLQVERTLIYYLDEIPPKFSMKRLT
Experimental: Antibodies were tested in an antigen binding assay using ELISA titration experiments. Antibodies were incubated with varying concentrations of recombinant TROP2 protein [rProtein].

[2] = molecular target: T2, TROP2 on MDA-468 cells over-expressing TROP2 (TROP2+ MDA-468) (UniProt P09758 27-323); assay: cell-based or functional assay
T2 sequence (looked up): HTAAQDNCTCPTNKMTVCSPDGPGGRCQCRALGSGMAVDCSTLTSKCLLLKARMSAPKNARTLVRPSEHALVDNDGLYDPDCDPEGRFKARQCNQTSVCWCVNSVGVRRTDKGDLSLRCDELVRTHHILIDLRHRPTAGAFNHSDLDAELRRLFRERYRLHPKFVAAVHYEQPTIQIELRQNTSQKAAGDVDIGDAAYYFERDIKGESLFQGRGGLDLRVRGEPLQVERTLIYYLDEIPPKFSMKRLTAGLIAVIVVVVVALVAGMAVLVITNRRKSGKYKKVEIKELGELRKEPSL

B1: TROP2-Ab8 (antibody, V domains shown)
VH: QVQLQQSGPEVVKPGASVKMSCKASGYRFTDYVINWVKQRTGQGLEWIGQIYPGSDSFHYNKNFKGKATLTADKSSNTAYMQLNSLTSEDSAVYFCARFFEGLAYWGQGTLVTVSA
VL: DIKMTQSPSSMYAFLGERVTITCKASQGINNYLSWFQLKPGKSPKSLIYRANRLVDGVPSRFSGSGSGQDYSLTISSLDYEDMGIYYCLQYDEFPLTFGGGTKLELK
notes: Monoclonal antibody from a hybridoma clone
rProtein ELISA Affinity [1]: < 0.1 nM
Indirect Cytotoxicity Cell viability % [2]: 26%
Indirect Cytotoxicity IC50 [2]: 0.0271 nM

B2: TROP2-Ab22 (antibody, V domains shown)
VH: QVQLQQSGPELVKPGASVKMSCKASGYTFTDYVINWVKQRPGQGLEWVGQIYPGSDGTYYNEPFKGEATLTADKSSNTAYMQLSSLTSEDSAVYFCARFFEGFAYWGQGTLVTVSA
VL: DIKMTQSPSSMFASLGERVTITCKASQDINWYLSWFQQKPGKSPKTLIYRANRLVDGVPSRFSGSGSGQDYSLTISSLDYEDMGVYYCLQYEEFPLTFGAGTKLELK
notes: as for B1
rProtein ELISA Affinity [1]: 0.19 nM
Indirect Cytotoxicity Cell viability % [2]: 34%
Indirect Cytotoxicity IC50 [2]: 0.0587 nM

B3: TROP2-Ab51 (antibody, V domains shown)
VH: QVQLQQSGPEVVKPGASVKMSCRASGYRFTDYVINWVKQRTGQGLEWIGQIYPGSDSFHYNKNFKGKATLTADKSSNTAYMQLNSLTSEDSAVYFCARFFEGFAYWGQGTLVTVSA
VL: DIKMTQSPSSMYAFLGERVTITCKASQGINNYLSWFQLKPGKSPKSLIYRANRLVDGVPSRFSGSGSGQDYSLTISSLDYEDMGIYYCLQYDEFPLTFGGGTKLELK
notes: as for B1
rProtein ELISA Affinity [1]: < 0.1 nM
Indirect Cytotoxicity Cell viability % [2]: 39%
Indirect Cytotoxicity IC50 [2]: 0.0567 nM

B4: TROP2-Ab7 (antibody, V domains shown)
VH: QVQLQQSGPEVVKPGASVKMSCKASGYRFTDYVINWVKQRSGQGLEWIGQIYPGSDTFHYNKNFKGKATLTADKSSNTAYMQLNSLTSEDSAVYFCARFFEGFAYWGQGTLVTVSA
VL: DIKMTQSPSSMYAFLGERVTITCKASQGINNYLSWFHLKPGKSPKSLIYRANRLVDGVPSRFSGSGSGQDYSLTISSLDYEDVGIYYCLQYDEFPLTFGGGTKLELK
notes: Monoclonal antibody from a hybridoma clone (V regions amplified with mouse Ig primers)
rProtein ELISA Affinity [1]: 0.1 nM
Indirect Cytotoxicity Cell viability % [2]: 34%
Indirect Cytotoxicity IC50 [2]: 0.044 nM

B5: TROP2-Ab46 (antibody, V domains shown)
VH: QVQLQQPGAELVRPGASVRLSCKSSGYTFTSYWINWVKQRPGQGLEWIGNIFPSHSYTNYNQKFRDKATLTVDKSSSTAYLQLSSPTSDDSAVYYCTRGSGFDYWGQGTALTVSS
VL: DILLTQSPAILSVSPGERVSFSCRASQNIGTSIHWYQQRTNGSPRLLISYASESISGIPSRFSGSGSGTDFTLIINSVESEDIADYYCQHSYSWPFTFGSGTKLEVK
notes: as for B1
rProtein ELISA Affinity [1]: < 0.1 nM
Indirect Cytotoxicity Cell viability % [2]: 27%
Indirect Cytotoxicity IC50 [2]: 0.0672 nM

B6: TROP2-Ab50 (antibody, V domains shown)
VH: QVQLQQSGAELVRPGTSVKISCKASGYTFTNYWLDWIKQRPGQGLEWIGNIFPGGDYTNYNEEFRGKATLTADTSSRTAFMQLSSLTSEDSAVYFCARSSYDYWGQGTLVTVSA
VL: DILLTQSPAILSVSPGERVSFSCRASQNIGTSIHWYQQRTNGSPRLLIKYSSESISGIPSRFSGSGSGTDFSLTINSVESEDIGDYYCQHSYTWPFTFGSGTKLEIK
notes: Monoclonal antibody from a hybridoma clone; also called TROP2 -Ab0
rProtein ELISA Affinity [1]: < 0.1 nM
Indirect Cytotoxicity Cell viability % [2]: 45%
Indirect Cytotoxicity IC50 [2]: 0.0992 nM
